B1: Low-density lipoprotein receptor class A domain-containing protein 1 (Homo sapiens), Q5T700 (parent)
chain: MNKVFPQGENGYTAAESKAHPGGEAGGGHLCCSRRGACLSASLLLLLATVAALIALVTILGLPSCTPGAQACITLTNRTGFLCHDQRSCIPASGVCDGVRTCTHGEDEDESLCRDVPQSLPHFLVAHCGDPASWIYSDQKCDGTNNCGDCSDELSPVTVCPPCGPGWWRCPSTFFKYCDCIPRHLCRDHVQHCSDWSDEYACPGP
partner: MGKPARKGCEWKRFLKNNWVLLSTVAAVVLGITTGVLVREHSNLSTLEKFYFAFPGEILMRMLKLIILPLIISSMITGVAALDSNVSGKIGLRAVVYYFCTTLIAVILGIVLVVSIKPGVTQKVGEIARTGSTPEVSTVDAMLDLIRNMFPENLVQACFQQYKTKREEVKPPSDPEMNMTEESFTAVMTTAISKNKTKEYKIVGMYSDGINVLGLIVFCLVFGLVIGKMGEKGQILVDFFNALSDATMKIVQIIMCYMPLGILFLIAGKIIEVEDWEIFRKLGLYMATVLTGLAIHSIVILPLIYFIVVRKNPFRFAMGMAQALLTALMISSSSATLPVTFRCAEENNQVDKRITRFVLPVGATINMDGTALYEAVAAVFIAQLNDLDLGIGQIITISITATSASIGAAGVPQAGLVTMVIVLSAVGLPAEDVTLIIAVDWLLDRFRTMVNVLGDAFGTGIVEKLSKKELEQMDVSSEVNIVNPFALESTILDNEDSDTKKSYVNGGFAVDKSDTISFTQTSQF
B2: 60 kDa heat shock protein, mitochondrial (Homo sapiens), P10809 (parent)
chain: MLRLPTVFRQMRPVSRVLAPHLTRAYAKDVKFGADARALMLQGVDLLADAVAVTMGPKGRTVIIEQSWGSPKVTKDGVTVAKSIDLKDKYKNIGAKLVQDVANNTNEEAGDGTTTATVLARSIAKEGFEKISKGANPVEIRRGVMLAVDAVIAELKKQSKPVTTPEEIAQVATISANGDKEIGNIISDAMKKVGRKGVITVKDGKTLNDELEIIEGMKFDRGYISPYFINTSKGQKCEFQDAYVLLSEKKISSIQSIVPALEIANAHRKPLVIIAEDVDGEALSTLVLNRLKVGLQVVAVKAPGFGDNRKNQLKDMAIATGGAVFGEEGLTLNLEDVQPHDLGKVGEVIVTKDDAMLLKGKGDKAQIEKRIQEIIEQLDVTTSEYEKEKLNERLAKLSDGVAVLKVGGTSDVEVNEKKDRVTDALNATRAAVEEGIVLGGGCALLRCIPALDSLTPANEDQKIGIEIIKRTLKIPAMTIAKNAGVEGSLIVEKIMQSSSEVGYDAMAGDFVNMVEKGIIDPTKVVRTALLDAAGVASLLTTAEVVVTEIPKEEKDPGMGAMGGMGGGMGGGMF
partner: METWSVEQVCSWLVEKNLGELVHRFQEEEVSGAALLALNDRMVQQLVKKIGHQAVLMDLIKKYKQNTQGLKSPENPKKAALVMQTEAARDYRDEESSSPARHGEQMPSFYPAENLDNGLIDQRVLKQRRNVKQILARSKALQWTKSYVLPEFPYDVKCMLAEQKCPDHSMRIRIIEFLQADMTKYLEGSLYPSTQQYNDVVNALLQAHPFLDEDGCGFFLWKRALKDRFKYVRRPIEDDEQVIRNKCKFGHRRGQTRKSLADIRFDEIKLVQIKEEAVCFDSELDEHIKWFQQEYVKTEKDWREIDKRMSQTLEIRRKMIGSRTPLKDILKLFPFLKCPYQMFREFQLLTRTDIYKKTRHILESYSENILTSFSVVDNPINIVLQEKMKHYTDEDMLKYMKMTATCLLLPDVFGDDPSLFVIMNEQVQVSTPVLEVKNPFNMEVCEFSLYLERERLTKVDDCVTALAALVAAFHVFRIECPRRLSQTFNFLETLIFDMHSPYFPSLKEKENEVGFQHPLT
B3: Retinoic acid receptor alpha (Homo sapiens), P10276 (parent)
chain: MASNSSSCPTPGGGHLNGYPVPPYAFFFPPMLGGLSPPGALTTLQHQLPVSGYSTPSPATIETQSSSSEEIVPSPPSPPPLPRIYKPCFVCQDKSSGYHYGVSACEGCKGFFRRSIQKNMVYTCHRDKNCIINKVTRNRCQYCRLQKCFEVGMSKESVRNDRNKKKKEVPKPECSESYTLTPEVGELIEKVRKAHQETFPALCQLGKYTTNNSSEQRVSLDIDLWDKFSELSTKCIIKTVEFAKQLPGFTTLTIADQITLLKAACLDILILRICTRYTPEQDTMTFSDGLTLNRTQMHNAGFGPLTDLVFAFANQLLPLEMDDAETGLLSAICLICGDRQDLEQPDRVDMLQEPLLEALKVYVRKRRPSRPHMFPKMLMKITDLRSISAKGAERVITLKMEIPGSMPPLIQEMLENSEGLDTLSGQPGGGGRDGGGLAPPPGSCSPSLSPSSNRSSPATHSP
partner: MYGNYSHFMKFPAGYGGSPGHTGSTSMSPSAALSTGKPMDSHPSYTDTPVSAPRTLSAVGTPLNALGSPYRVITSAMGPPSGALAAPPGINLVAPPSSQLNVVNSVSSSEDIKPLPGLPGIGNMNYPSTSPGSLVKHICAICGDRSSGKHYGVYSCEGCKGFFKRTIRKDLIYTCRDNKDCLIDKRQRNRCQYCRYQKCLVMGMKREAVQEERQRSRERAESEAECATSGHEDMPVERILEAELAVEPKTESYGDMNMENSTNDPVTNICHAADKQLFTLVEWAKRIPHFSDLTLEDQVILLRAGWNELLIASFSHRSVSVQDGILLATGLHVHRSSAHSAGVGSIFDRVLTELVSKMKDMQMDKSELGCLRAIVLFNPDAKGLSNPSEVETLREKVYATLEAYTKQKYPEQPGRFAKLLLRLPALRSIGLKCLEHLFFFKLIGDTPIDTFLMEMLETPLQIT
B4: GRIP and coiled-coil domain-containing protein 1 (Homo sapiens), Q96CN9 (parent)
chain: MEKFGMNFGGGPSKKDLLETIETQKKQLLQYQARLKDVVRAYKSLLKEKEALEASIKVLSVSHEADVGLAGVQLPGLTFPDSVDDRCSTHSEDSTGTATSLDTAASLTSTKGEFGVEDDRPARGPPPPKSEEASWSESGVSSSSGDGPFAGGEVDKRLHQLKTQLATLTSSLATVTQEKSRMEASYLADKKKMKQDLEDASNKAEEERARLEGELKGLQEQIAETKARLITQQHDRAQEQSDHALMLRELQKLLQEERTQRQDLELRLEETREALAGRAYAAEQMEGFELQTKQLTREVEELKSELQAIRDEKNQPDPRLQELQEEAARLKSHFQAQLQQEMRKTALAEDQLRQQSQVEEQRVAALENQISEVSELLGTYEKAKQKDQLAIQKLKERILQLDLENKTLALAASSRSPLDSHGEESSLDVNVLKDKMEKLKRLLQVAARKSQVTLDVEKLCDLEIMPSSEAADGEKATALYYQQELKQLKEEFERYKMRAQVVLKSKNTKDGNLGKELEAAQEQLAELKEKYISLRLSCEELEHQHQQEADDWKQELARLQQLHRQELERCQLDFRDRTLKLEEELHKQRDRALAVLTEKDLELEQLRSVALASGLPGRRSPVGGGGPGDPADTSSSDSLTQALQLAAANEPTFFLYAEQLARKEVEITSLRKQKHRLEVEVHQLQDRLLEEGERHREEVAALQSHIEKNIRDQSREGANLEYLKNIIYRFLTLPDSLGRQQTLTAILTILHFSPEEKQVIMRLPTSASWWPSGKR
B5: Nebulette (Homo sapiens), O76041 (parent)
chain: MRVPVFEDIKDETEEEKIGEEENEEDQVFYKPVIEDLSMELARKCTELISDIRYKEEFKKSKDKCTFVTDSPMLNHVKNIGAFISEAKYKGTIKADLSNSLYKRMPATIDSVFAGEVTQLQSEVAYKQKHDAAKGFSDYAHMKEPPEVKHAMEVNKHQSNISYRKDVQDTHTYSAELDRPDIKMATQISKIISNAEYKKGQGIMNKEPAVIGRPDFEHAVEASKLSSQIKYKEKFDNEMKDKKHHYNPLESASFRQNQLAATLASNVKYKKDIQNMHDPVSDLPNLLFLDHVLKASKMLSGREYKKLFEENKGMYHFDADAVEHLHHKGNAVLQSQVKYKEEYEKNKGKPMLEFVETPSYQASKEAQKMQSEKVYKEDFEKEIKGRSSLDLDKTPEFLHVKYITNLLREKEYKKDLENEIKGKGMELNSEVLDIQRAKRASEMASEKEYKKDLESIIKGKGMQAGTDTLEMQHAKKAAEIASEKDYKRDLETEIKGKGMQVSTDTLDVQRAKKASEMASQKQYKKDLENEIKGKGMQVSMDIPDILRAKRTSEIYSQRKYKDEAEKMLSNYSTIADTPEIQRIKTTQQNISAVFYKKEVGAGTAVKDSPEIERVKKNQQNISSVKYKEEIKHATAISDPPELKRVKENQKNISNLQYKEQNYKATPVSMTPEIERVRRNQEQLSAVKYKGELQRGTAISDPPELKRAKENQKNISNVYYRGQLGRATTLSVTPEMERVKKNQENISSVKYTQDHKQMKGRPSLILDTPAMRHVKEAQNHISMVKYHEDFEKTKGRGFTPVVDDPVTERVRKNTQVVSDAAYKGVHPHIVEMDRRPGIIVDLKVWRTDPGSIFDLDPLEDNIQSRSLHMLSEKASHYRRHWSRSHSSSTFGTGLGDDRSEISEIYPSFSCCSEVTRPSDEGAPVLPGAYQQSHSQGYGYMHQTSVSSMRSMQHSPNLRTYRAMYDYSAQDEDEVSFRDGDYIVNVQPIDDGWMYGTVQRTGRTGMLPANYIEFVN

Variants of: B1
Conditions: with eaa3_human SLC1A1, P43005

Question: How did the “effect of a mutation on the interaction” value turn out when G105S was run?
Answer: with no effect

Variants of: B2
Conditions: with samd3_human SAMD3, Q8N6K7

Question: Which “effect of a mutation on the interaction” value does the source give for R9G here?
Answer: with no effect

Question: For R142K, which “effect of a mutation on the interaction” value is on record?
Answer: disrupting interaction strength

Variants of: B3
Conditions: with rxrg_human RXRG

Question: Which “effect of a mutation on the interaction” value does the source give for P318R here?
Answer: with no effect

Variants of: B4
Conditions: with mcrs1_human MCRS1, Q96EZ8
mcrs1_human MCRS1, Q96EZ8, sequence (Q96EZ8 whole entry): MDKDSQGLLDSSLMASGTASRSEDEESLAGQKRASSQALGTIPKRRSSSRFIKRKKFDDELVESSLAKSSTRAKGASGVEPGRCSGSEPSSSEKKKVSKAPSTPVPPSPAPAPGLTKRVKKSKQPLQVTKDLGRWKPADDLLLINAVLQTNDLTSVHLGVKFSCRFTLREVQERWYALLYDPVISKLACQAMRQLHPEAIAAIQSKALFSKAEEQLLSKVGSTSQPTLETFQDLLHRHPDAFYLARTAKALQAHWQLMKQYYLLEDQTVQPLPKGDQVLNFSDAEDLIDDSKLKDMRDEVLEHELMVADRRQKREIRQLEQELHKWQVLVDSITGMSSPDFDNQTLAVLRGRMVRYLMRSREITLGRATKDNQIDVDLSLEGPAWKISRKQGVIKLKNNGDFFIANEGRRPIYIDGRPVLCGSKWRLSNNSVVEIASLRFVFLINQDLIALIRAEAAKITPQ

Question: How did the “effect of a mutation on the interaction” value turn out when A274T was run?
Answer: with no effect

Variants of: B4
Conditions: with amol2_human AMOTL2, Q9Y2J4
amol2_human AMOTL2, Q9Y2J4, sequence (Q9Y2J4 whole entry): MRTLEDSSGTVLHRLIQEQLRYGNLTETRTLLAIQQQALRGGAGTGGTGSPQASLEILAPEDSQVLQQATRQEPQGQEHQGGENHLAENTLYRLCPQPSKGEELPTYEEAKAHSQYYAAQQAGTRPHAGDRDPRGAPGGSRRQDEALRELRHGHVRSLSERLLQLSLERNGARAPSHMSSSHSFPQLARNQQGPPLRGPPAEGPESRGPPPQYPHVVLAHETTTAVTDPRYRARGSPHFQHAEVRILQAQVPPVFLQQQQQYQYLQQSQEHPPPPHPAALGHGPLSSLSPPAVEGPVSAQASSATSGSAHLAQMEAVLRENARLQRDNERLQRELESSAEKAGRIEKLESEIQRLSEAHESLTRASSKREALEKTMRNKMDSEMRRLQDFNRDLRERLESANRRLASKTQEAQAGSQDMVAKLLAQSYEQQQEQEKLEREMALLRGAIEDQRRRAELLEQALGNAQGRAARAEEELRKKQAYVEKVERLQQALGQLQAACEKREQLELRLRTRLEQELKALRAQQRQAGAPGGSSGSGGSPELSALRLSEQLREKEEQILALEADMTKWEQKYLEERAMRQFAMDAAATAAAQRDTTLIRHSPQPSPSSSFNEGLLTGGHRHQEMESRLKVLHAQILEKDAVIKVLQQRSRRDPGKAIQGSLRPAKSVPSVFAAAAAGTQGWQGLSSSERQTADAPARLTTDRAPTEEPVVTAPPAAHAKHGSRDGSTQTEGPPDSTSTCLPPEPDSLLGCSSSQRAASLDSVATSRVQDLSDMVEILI

Question: For A274T, which “effect of a mutation on the interaction” value is on record?
Answer: with no effect

Variants of: B5
Conditions: with traf2_human TRAF2, Q12933
traf2_human TRAF2, Q12933, sequence (Q12933 whole entry): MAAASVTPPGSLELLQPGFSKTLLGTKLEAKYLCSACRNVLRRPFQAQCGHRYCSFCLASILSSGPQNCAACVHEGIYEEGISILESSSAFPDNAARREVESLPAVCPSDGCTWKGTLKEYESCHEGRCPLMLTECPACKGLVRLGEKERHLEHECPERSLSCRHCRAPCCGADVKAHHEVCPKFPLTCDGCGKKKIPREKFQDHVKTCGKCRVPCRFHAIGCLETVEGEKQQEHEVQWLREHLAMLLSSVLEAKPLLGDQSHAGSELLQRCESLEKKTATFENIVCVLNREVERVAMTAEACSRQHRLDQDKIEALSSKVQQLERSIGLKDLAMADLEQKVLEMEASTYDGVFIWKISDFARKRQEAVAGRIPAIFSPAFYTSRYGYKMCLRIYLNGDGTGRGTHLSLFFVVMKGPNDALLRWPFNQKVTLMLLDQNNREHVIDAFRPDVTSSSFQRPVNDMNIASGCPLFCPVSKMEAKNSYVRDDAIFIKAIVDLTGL

Question: For M351V, which “effect of a mutation on the interaction” value is on record?
Answer: with no effect

Question: How did the “effect of a mutation on the interaction” value turn out when R613Q was run?
Answer: with no effect

Variants of: B5
Conditions: with cc136_human CCDC136, Q96JN2
cc136_human CCDC136, Q96JN2, sequence (Q96JN2 whole entry): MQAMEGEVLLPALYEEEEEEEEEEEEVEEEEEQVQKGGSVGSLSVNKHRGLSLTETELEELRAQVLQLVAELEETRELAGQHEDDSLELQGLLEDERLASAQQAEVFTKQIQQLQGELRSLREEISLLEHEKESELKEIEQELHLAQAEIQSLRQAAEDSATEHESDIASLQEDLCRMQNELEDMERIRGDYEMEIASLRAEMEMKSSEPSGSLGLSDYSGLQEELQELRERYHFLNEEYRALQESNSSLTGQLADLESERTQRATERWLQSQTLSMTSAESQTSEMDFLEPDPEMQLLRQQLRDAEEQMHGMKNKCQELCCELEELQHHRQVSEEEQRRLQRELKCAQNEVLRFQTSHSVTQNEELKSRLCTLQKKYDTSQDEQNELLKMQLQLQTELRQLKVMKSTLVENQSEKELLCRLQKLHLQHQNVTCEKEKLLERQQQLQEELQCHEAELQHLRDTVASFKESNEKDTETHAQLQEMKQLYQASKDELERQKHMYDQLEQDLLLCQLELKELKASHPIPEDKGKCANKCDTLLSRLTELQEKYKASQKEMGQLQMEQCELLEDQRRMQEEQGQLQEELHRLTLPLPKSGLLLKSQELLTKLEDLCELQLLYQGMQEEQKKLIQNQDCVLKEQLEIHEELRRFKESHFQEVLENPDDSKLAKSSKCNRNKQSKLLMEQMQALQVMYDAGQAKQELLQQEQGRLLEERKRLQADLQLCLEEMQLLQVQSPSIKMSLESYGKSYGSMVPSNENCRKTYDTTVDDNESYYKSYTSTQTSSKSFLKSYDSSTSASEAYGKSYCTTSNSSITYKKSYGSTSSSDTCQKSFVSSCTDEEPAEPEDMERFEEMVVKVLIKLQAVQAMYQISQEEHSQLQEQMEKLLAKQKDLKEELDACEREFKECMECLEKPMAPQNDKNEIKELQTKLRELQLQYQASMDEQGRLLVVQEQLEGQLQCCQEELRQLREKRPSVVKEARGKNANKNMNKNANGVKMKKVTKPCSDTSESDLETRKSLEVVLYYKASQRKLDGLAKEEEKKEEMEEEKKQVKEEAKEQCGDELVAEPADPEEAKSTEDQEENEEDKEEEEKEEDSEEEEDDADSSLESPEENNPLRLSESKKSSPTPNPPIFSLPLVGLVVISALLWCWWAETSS

Question: With M351V as the variant, how does the “effect of a mutation on the interaction” value read?
Answer: with no effect

Question: Which “effect of a mutation on the interaction” value does the source give for R613Q here?
Answer: with no effect

Variants of: B5
Conditions: with traf1_human TRAF1, Q13077
traf1_human TRAF1, Q13077, sequence (Q13077 whole entry): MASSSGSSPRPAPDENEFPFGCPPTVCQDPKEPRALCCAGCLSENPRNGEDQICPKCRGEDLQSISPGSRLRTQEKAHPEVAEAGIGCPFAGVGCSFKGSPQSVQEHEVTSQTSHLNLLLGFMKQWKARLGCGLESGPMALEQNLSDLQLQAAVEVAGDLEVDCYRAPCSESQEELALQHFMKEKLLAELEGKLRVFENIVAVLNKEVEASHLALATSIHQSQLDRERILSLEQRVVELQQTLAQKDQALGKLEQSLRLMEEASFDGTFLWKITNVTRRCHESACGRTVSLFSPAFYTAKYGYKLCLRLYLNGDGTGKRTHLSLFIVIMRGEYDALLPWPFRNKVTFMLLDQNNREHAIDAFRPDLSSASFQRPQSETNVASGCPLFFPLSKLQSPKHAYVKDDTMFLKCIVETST

Question: Which “effect of a mutation on the interaction” value does the source give for M351V here?
Answer: with no effect

Question: R613Q was tested. Which “effect of a mutation on the interaction” value did it give?
Answer: with no effect
